According to patent US20050227306:

Columns and labels:
[1] = target: His6-tetraCys-X-MBP protease substrate 25-F [MBP: P0AEX9]
[2] = target: His6-tetraCys-X-MBP protease substrate 21-F [MBP: P0AEX9]
[3] = target: His6-tetraCys-X-MBP protease substrate 26-F [MBP: P0AEX9]
[4] = target: At3g16990 fusion protein expressed from pVP15
[5] = target: His6-tetraCys-X-MBP protease substrate 24-F [MBP: P0AEX9]
[6] = target: At3g03410 fusion protein expressed from pVP14
[7] = target: His6-tetraCys-X-MBP protease substrate 22-F [MBP: P0AEX9]
[8] = target: His6-tetraCys-X-MBP protease substrate 23-F [MBP: P0AEX9]

B1: tobacco etch virus (TEV) protease (protein)
chain: GESLFKGPRDYNPISSTICHLTNESDGHTTSLYGIGFGPFIITNKHLFRRNNGTLLVQSLHGVFKVKNTTTLQQHLIDGRDMIIIRMPKDFPPFPQKLKFREPQREERICLVTTNFQTKSMSSMVSDTSCTFPSSDGIFWKHWIQTKDGQCGSPLVSTRDGFIVGIHSASNFTNTNNYFTSVPKNFMELLTNQEAQQWVSGWRLNADSVLWGGHKVFMSKPEEPFQPVKEATQLMNELVYSQ
[1]
  relative rate of reaction (initial proteolysis rate by fluorescence anisotropy, normalised to the cognate substrate) (relative rate): 0
[2]
  fluorescence anisotropy and SDS-PAGE: underwent a minor amount of proteolysis
  relative rate of reaction (initial proteolysis rate by fluorescence anisotropy, normalised to the cognate substrate) (relative rate): 0.01
[3]
  relative rate of reaction (initial proteolysis rate by fluorescence anisotropy, normalised to the cognate substrate) (relative rate): 1
  specific reaction rate (slope of initial proteolysis rate versus protease concentration): TEV protease; 17.3±0.7
[4]
  fluorescence anisotropy over time: a time-dependent decrease in anisotropy was observed
[5]
  relative rate of reaction (initial proteolysis rate by fluorescence anisotropy, normalised to the cognate substrate) (relative rate): -0.01
[6]
  fluorescence anisotropy over time: time-dependent decreases in anisotropy
[7]
  relative rate of reaction (initial proteolysis rate by fluorescence anisotropy, normalised to the cognate substrate) (relative rate): 0
[8]
  relative rate of reaction (initial proteolysis rate by fluorescence anisotropy, normalised to the cognate substrate) (relative rate): -0.02
